Source: publication PMC9482650, “Quantitative fragmentomics allow affinity mapping of interactomes” (Nature Communications, 2022)

B1: TRMT13, Q9NUP7 (peptide)
chain: NHSSSPETTA
B2: MYOZ2, Q9NPC6 (peptide)
chain: DTTVPESEDL

Biological target: T1, PTPN13_1, Q12923
T1 sequence (Q12923 1088-1188, limits assumed, looked up): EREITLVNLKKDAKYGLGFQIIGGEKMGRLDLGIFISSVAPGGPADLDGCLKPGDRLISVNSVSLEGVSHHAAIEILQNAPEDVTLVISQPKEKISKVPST
Test: holdup assay
Set-up: key: below the threshold = too weak to quantify, mostly under pKd 3.1 to 4
Conditions: plain residues with an end cap or a label only (N-terminal biotin on a linker: ado-ado)

| Binder | pKd |
| --- | --- |
| B1 | below the threshold |
| B2 | below the threshold |

Biological target: LNX1_1, Q8TBB1
Test: holdup assay
Set-up: key: below the threshold = too weak to quantify, mostly under pKd 3.1 to 4
Conditions: plain residues with an end cap or a label only (N-terminal biotin on a linker: ado-ado)

Sequence of LNX1_1, Q8TBB1 (Q8TBB1 261-371): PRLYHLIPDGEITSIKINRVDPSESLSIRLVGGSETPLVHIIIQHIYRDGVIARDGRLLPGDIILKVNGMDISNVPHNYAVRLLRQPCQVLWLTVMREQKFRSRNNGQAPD

| Binder | pKd |
| --- | --- |
| B1 | below the threshold |
| B2 | below the threshold |

Biological target: T2, ARHGEF11, O15085
T2 sequence (O15085 42-136, limits assumed, looked up): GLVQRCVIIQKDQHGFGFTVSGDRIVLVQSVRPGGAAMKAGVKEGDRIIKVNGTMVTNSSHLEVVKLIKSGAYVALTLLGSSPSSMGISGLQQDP
Test: holdup assay
Set-up: key: below the threshold = too weak to quantify, mostly under pKd 3.1 to 4
Conditions: plain residues with an end cap or a label only (N-terminal biotin on a linker: ado-ado)

| Binder | pKd |
| --- | --- |
| B1 | below the threshold |
| B2 | 3.7 |

Biological target: Inadl_9, Q8NI35
Test: holdup assay
Set-up: key: below the threshold = too weak to quantify, mostly under pKd 3.1 to 4
Conditions: plain residues with an end cap or a label only (N-terminal biotin on a linker: ado-ado)

Sequence of Inadl_9, Q8NI35 (Q8NI35 1530-1615): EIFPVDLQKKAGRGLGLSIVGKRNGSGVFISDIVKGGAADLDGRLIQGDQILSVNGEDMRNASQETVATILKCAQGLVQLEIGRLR

| Binder | pKd |
| --- | --- |
| B1 | below the threshold |
| B2 | below the threshold |

Biological target: DLG2_3, Q15700
Test: holdup assay
Set-up: key: below the threshold = too weak to quantify, mostly under pKd 3.1 to 4
Conditions: plain residues with an end cap or a label only (N-terminal biotin on a linker: ado-ado)

| Binder | pKd |
| --- | --- |
| B1 | 3.67 |
| B2 | below the threshold |

Biological target: T3, TX1BP3, O14907
T3 sequence (O14907 10-122, limits assumed, looked up): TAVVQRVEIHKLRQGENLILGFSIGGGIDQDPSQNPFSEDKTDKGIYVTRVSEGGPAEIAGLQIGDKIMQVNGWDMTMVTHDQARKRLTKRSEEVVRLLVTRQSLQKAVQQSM
Test: holdup assay
Set-up: key: below the threshold = too weak to quantify, mostly under pKd 3.1 to 4
Conditions: plain residues with an end cap or a label only (N-terminal biotin on a linker: ado-ado)

| Binder | pKd |
| --- | --- |
| B1 | 3.87 |
| B2 | below the threshold |

Biological target: Inadl_1, Q8NI35
Test: holdup assay
Set-up: key: below the threshold = too weak to quantify, mostly under pKd 3.1 to 4
Conditions: plain residues with an end cap or a label only (N-terminal biotin on a linker: ado-ado)

Sequence of Inadl_1, Q8NI35 (Q8NI35 113-229): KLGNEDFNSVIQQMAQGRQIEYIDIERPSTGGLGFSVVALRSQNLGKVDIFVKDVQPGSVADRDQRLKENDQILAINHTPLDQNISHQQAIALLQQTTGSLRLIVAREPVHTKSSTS

| Binder | pKd |
| --- | --- |
| B1 | below the threshold |
| B2 | below the threshold |

Biological target: Inadl_5, Q8NI35
Test: holdup assay
Set-up: key: below the threshold = too weak to quantify, mostly under pKd 3.1 to 4
Conditions: plain residues with an end cap or a label only (N-terminal biotin on a linker: ado-ado)

Sequence of Inadl_5, Q8NI35 (Q8NI35 673-780): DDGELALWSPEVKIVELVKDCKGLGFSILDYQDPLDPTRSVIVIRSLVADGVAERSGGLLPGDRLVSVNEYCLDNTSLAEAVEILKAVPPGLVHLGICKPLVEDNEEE

| Binder | pKd |
| --- | --- |
| B1 | below the threshold |
| B2 | below the threshold |

Biological target: MAGI2_3, Q86UL8
Test: holdup assay
Set-up: key: below the threshold = too weak to quantify, mostly under pKd 3.1 to 4
Conditions: plain residues with an end cap or a label only (N-terminal biotin on a linker: ado-ado)

Sequence of MAGI2_3, Q86UL8 (Q86UL8 600-682): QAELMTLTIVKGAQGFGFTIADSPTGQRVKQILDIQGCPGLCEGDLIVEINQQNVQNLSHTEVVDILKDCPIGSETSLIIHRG

| Binder | pKd |
| --- | --- |
| B1 | below the threshold |
| B2 | below the threshold |

Biological target: GORASP2, Q9H8Y8
Test: holdup assay
Set-up: key: below the threshold = too weak to quantify, mostly under pKd 3.1 to 4
Conditions: plain residues with an end cap or a label only (N-terminal biotin on a linker: ado-ado)

| Binder | pKd |
| --- | --- |
| B1 | below the threshold |
| B2 | below the threshold |

Biological target: T4, SHANK1, Q9Y566
T4 sequence (Q9Y566 658-767, limits assumed, looked up): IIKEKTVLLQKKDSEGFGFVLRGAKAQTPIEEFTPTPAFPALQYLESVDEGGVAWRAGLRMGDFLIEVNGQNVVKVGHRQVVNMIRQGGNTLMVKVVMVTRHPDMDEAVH
Test: holdup assay
Set-up: key: below the threshold = too weak to quantify, mostly under pKd 3.1 to 4
Conditions: plain residues with an end cap or a label only (N-terminal biotin on a linker: ado-ado)

| Binder | pKd |
| --- | --- |
| B1 | below the threshold |
| B2 | below the threshold |

Biological target: T5, LIN7A, O14910
T5 sequence (O14910 103-200, limits assumed, looked up): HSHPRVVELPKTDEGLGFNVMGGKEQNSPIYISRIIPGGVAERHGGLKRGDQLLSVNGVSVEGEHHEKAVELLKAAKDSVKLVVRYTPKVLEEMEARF
Test: holdup assay
Set-up: key: below the threshold = too weak to quantify, mostly under pKd 3.1 to 4
Conditions: plain residues with an end cap or a label only (N-terminal biotin on a linker: ado-ado)

| Binder | pKd |
| --- | --- |
| B1 | below the threshold |
| B2 | below the threshold |

Biological target: PDZRN4_1, Q6ZMN7
Test: holdup assay
Set-up: key: below the threshold = too weak to quantify, mostly under pKd 3.1 to 4
Conditions: plain residues with an end cap or a label only (N-terminal biotin on a linker: ado-ado)

Sequence of PDZRN4_1, Q6ZMN7 (Q6ZMN7 213-318): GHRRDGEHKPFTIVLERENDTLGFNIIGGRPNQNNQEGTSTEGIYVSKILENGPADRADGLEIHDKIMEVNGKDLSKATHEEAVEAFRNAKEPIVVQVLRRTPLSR

| Binder | pKd |
| --- | --- |
| B1 | below the threshold |
| B2 | below the threshold |

Biological target: T6, MPDZ_12, O75970
T6 sequence (O75970 1857-1958, limits assumed, looked up): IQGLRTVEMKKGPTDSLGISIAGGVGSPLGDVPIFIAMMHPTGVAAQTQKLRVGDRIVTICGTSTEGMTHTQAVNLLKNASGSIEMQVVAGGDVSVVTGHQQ
Test: holdup assay
Set-up: key: below the threshold = too weak to quantify, mostly under pKd 3.1 to 4
Conditions: plain residues with an end cap or a label only (N-terminal biotin on a linker: ado-ado)

| Binder | pKd |
| --- | --- |
| B1 | below the threshold |
| B2 | below the threshold |

Biological target: Inadl_10, Q8NI35
Test: holdup assay
Set-up: key: below the threshold = too weak to quantify, mostly under pKd 3.1 to 4
Conditions: plain residues with an end cap or a label only (N-terminal biotin on a linker: ado-ado)

Sequence of Inadl_10, Q8NI35 (Q8NI35 1673-1763): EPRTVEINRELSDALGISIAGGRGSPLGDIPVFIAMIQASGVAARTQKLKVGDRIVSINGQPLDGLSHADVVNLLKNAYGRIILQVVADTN

| Binder | pKd |
| --- | --- |
| B1 | below the threshold |
| B2 | below the threshold |

Biological target: GRASP, Q7Z6J2
Test: holdup assay
Set-up: key: below the threshold = too weak to quantify, mostly under pKd 3.1 to 4
Conditions: plain residues with an end cap or a label only (N-terminal biotin on a linker: ado-ado)

Sequence of GRASP, Q7Z6J2 (Q7Z6J2 96-193): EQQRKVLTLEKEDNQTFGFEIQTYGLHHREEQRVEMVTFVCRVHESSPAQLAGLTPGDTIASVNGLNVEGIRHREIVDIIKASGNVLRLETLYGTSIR

| Binder | pKd |
| --- | --- |
| B1 | below the threshold |
| B2 | below the threshold |

Biological target: T7, PCLO, Q9Y6V0
T7 sequence (Q9Y6V0 4491-4600, limits assumed, looked up): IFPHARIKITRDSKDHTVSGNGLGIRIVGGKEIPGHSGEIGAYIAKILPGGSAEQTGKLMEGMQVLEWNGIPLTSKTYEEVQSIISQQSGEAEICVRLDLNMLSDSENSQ
Test: holdup assay
Set-up: key: below the threshold = too weak to quantify, mostly under pKd 3.1 to 4
Conditions: plain residues with an end cap or a label only (N-terminal biotin on a linker: ado-ado)

| Binder | pKd |
| --- | --- |
| B1 | below the threshold |
| B2 | below the threshold |

Biological target: MAGI2_6, Q86UL8
Test: holdup assay
Set-up: key: below the threshold = too weak to quantify, mostly under pKd 3.1 to 4
Conditions: plain residues with an end cap or a label only (N-terminal biotin on a linker: ado-ado)

Sequence of MAGI2_6, Q86UL8 (Q86UL8 1141-1229): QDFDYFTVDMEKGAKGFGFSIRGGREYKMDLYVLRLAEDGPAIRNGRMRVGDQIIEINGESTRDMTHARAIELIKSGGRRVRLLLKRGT

| Binder | pKd |
| --- | --- |
| B1 | below the threshold |
| B2 | 4.11 |

Biological target: MAST2, Q6P0Q8
Test: holdup assay
Set-up: key: below the threshold = too weak to quantify, mostly under pKd 3.1 to 4
Conditions: plain residues with an end cap or a label only (N-terminal biotin on a linker: ado-ado)

Sequence of MAST2, Q6P0Q8 (Q6P0Q8 1099-1202): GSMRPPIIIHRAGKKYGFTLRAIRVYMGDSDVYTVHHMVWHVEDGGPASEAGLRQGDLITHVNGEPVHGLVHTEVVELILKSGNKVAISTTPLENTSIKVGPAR

| Binder | pKd |
| --- | --- |
| B1 | below the threshold |
| B2 | 4.7 |

Biological target: GIPC2, Q8TF65
Test: holdup assay
Set-up: key: below the threshold = too weak to quantify, mostly under pKd 3.1 to 4
Conditions: plain residues with an end cap or a label only (N-terminal biotin on a linker: ado-ado)

Sequence of GIPC2, Q8TF65 (Q8TF65 112-203): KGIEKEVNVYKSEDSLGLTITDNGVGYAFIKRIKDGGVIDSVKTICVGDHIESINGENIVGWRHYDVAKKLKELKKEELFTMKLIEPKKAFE

| Binder | pKd |
| --- | --- |
| B1 | below the threshold |
| B2 | below the threshold |

Biological target: GRID2IP_1, A4D2P6
Test: holdup assay
Set-up: key: below the threshold = too weak to quantify, mostly under pKd 3.1 to 4
Conditions: plain residues with an end cap or a label only (N-terminal biotin on a linker: ado-ado)

Sequence of GRID2IP_1, A4D2P6 (A4D2P6 1-87): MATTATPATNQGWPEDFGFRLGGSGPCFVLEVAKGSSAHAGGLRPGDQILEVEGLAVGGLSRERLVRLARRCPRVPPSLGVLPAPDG

| Binder | pKd |
| --- | --- |
| B1 | below the threshold |
| B2 | below the threshold |

Biological target: DLG1_1, Q12959
Test: holdup assay
Set-up: key: below the threshold = too weak to quantify, mostly under pKd 3.1 to 4
Conditions: plain residues with an end cap or a label only (N-terminal biotin on a linker: ado-ado)

| Binder | pKd |
| --- | --- |
| B1 | below the threshold |
| B2 | below the threshold |

Biological target: T8, FRMPD1, Q5SYB0
T8 sequence (Q5SYB0 52-145, limits assumed, looked up): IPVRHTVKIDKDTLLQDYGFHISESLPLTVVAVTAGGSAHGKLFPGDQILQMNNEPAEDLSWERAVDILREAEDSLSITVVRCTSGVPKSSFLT
Test: holdup assay
Set-up: key: below the threshold = too weak to quantify, mostly under pKd 3.1 to 4
Conditions: plain residues with an end cap or a label only (N-terminal biotin on a linker: ado-ado)

| Binder | pKd |
| --- | --- |
| B1 | below the threshold |
| B2 | below the threshold |

Biological target: PTPN3, P26045
Test: holdup assay
Set-up: key: below the threshold = too weak to quantify, mostly under pKd 3.1 to 4
Conditions: plain residues with an end cap or a label only (N-terminal biotin on a linker: ado-ado)

Sequence of PTPN3, P26045 (P26045 505-587): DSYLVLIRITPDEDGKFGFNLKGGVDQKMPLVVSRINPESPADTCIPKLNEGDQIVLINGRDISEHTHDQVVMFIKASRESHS

| Binder | pKd |
| --- | --- |
| B1 | 3.88 |
| B2 | 4.25 |

Biological target: DLG5_1, Q8TDM6
Test: holdup assay
Set-up: key: below the threshold = too weak to quantify, mostly under pKd 3.1 to 4
Conditions: plain residues with an end cap or a label only (N-terminal biotin on a linker: ado-ado)

Sequence of DLG5_1, Q8TDM6 (Q8TDM6 617-713): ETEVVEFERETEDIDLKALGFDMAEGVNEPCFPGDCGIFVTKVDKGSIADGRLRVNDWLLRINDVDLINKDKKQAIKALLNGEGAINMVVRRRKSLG

| Binder | pKd |
| --- | --- |
| B1 | below the threshold |
| B2 | below the threshold |

Biological target: MAGI2_2, Q86UL8
Test: holdup assay
Set-up: key: below the threshold = too weak to quantify, mostly under pKd 3.1 to 4
Conditions: plain residues with an end cap or a label only (N-terminal biotin on a linker: ado-ado)

Sequence of MAGI2_2, Q86UL8 (Q86UL8 410-522): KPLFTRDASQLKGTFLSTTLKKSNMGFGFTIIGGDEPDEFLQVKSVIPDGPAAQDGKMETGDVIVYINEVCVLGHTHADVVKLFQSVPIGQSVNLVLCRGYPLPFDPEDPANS

| Binder | pKd |
| --- | --- |
| B1 | below the threshold |
| B2 | below the threshold |

Biological target: NHERF2_2, Q15599
Test: holdup assay
Set-up: key: below the threshold = too weak to quantify, mostly under pKd 3.1 to 4
Conditions: plain residues with an end cap or a label only (N-terminal biotin on a linker: ado-ado)

Sequence of NHERF2_2, Q15599 (Q15599 142-238): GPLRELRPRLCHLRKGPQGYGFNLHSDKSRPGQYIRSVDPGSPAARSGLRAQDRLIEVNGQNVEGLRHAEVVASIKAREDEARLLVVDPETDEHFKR

| Binder | pKd |
| --- | --- |
| B1 | below the threshold |
| B2 | 4.27 |

Biological target: NHERF4_4, Q86UT5
Test: holdup assay
Set-up: key: below the threshold = too weak to quantify, mostly under pKd 3.1 to 4
Conditions: plain residues with an end cap or a label only (N-terminal biotin on a linker: ado-ado)

Sequence of NHERF4_4, Q86UT5 (Q86UT5 464-550): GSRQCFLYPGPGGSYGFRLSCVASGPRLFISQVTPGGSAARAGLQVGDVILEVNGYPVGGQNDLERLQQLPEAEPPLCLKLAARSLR

| Binder | pKd |
| --- | --- |
| B1 | below the threshold |
| B2 | below the threshold |

Biological target: T9, DLG3_2, Q92796
T9 sequence (Q92796 221-321, limits assumed, looked up): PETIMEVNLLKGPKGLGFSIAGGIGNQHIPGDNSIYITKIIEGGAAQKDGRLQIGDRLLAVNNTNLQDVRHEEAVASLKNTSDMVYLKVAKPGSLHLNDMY
Test: holdup assay
Set-up: key: below the threshold = too weak to quantify, mostly under pKd 3.1 to 4
Conditions: plain residues with an end cap or a label only (N-terminal biotin on a linker: ado-ado)

| Binder | pKd |
| --- | --- |
| B1 | 4.09 |
| B2 | below the threshold |
